First the molecules themselves.
B1: F7.33.24-H1 (scFv, not shown: small tags and cut ends)
scFv: EVQLVQSGAEVKKPGASVKVSCKASGYTFTSYWMHWVRQAPGQRLEWMGNVNPSNGGSNYNEKFKNRVTITVDKSASTAYMELSSLRSEDTAVYYCAPHYIGSRPGFAYWGQGTLVTVSSGGGGSGGGGSGGGGSDIVMTQSPDSLAVSLGERATINCKASQNVGTNIAWYQQKPGQSPKALIYSASYRYSGVPDRFSGSGSGTDFTLTISSLQAEDVAVYYCQQYNSYPLTFGGGTKVEIK
notes: also called S009-F7.33.24 humanized antibody VH1 + VL1
B2: F7.33.24-H7 (scFv, not shown: small tags and cut ends)
scFv: B1 scFv with R44G
notes: also called S009-F7.33.24 humanized antibody VH2 + VL1
B3: F7.33.24-H10 (scFv, not shown: small tags and cut ends)
scFv: B1 scFv with R44G, G56A
notes: also called S009-F7.33.24 humanized antibody VH2a + VL1
B4: F7.33.24-H4 (scFv, not shown: small tags and cut ends)
scFv: B1 scFv with N55S
notes: also called S009-F7.33.24 humanized antibody VH1a + VL1
B5: F7.33.24-H3 (scFv, not shown: small tags and cut ends)
scFv: EVQLVQSGAEVKKPGASVKVSCKASGYTFTSYWMHWVRQAPGQRLEWMGNVNPSNGGSNYNEKFKNRVTITVDKSASTAYMELSSLRSEDTAVYYCAPHYIGSRPGFAYWGQGTLVTVSSGGGGSGGGGSGGGGSDIVMTQTPLSLSVTPGQPASISCKASQNVGTNIAWYQQKPGQSPQALIYSASYRYSGVPDRFSGSGSGTDFTLKISRVEAEDVGVYYCQQYNSYPLTFGGGTKVEIK
notes: also called S009-F7.33.24 humanized antibody VH1 + VL3
B6: F7.33.24-H9 (scFv, not shown: small tags and cut ends)
scFv: B5 scFv with R44G
notes: also called S009-F7.33.24 humanized antibody VH2 + VL3
B7: F7.33.24-H6 (scFv, not shown: small tags and cut ends)
scFv: B5 scFv with N55S
notes: also called S009-F7.33.24 humanized antibody VH1a + VL3
B8: Tab110 (scFv, not shown: small tags and cut ends)
scFv: QQQLEESGGGLVKPEGSLTLTCKASGFDLGFYFYACWVRQAPGKGLEWIACIYTAGSGSTYYASWAKGRFTISKASSTTVTLQMTSLAAADTATYFCARSTANTRSTYYLNLWGPGTLVTVSSGGGGSGGGGSGGGGSDVVMTQTPASVSEPVGGTVTIKCQASQRISSYLSWYQQKPGQRPKLLIFGASTLASGVPSRFKGSGSGTEYTLTISDLECADAATYYCQSYAYFDSNNWHAFGGGTEVVV
notes: also called YP218 VH-(G4S)3-VL-his antibody; positive control
B9: F7.44.20-H5 (scFv, not shown: small tags and cut ends)
scFv: EVQLVQSGAEVKKPGASVKVSCKASGYTFTDYNMDWVRQAPGQGLEWMGDINPSTGGTIYNQKFQGRVTMTEDKSTSTVYMELSSLRSEDTAVYYCARRRIGTGYFDVWGQGTTVTVSSGGGGSGGGGSGGGGSEIVLTQSPDFQSVTPKEKVTITCSASSSVISSYLSWYQQKPDQSPKLLIYRTSNLASGVPSRFSGSGSGTDFTLTINSLEAEDAATYYCHQWSSFPYTFGGGTKVEIK
notes: also called S009-F7.44.20 humanized antibody VH1a + VL1
B10: F7.44.20-H9 (scFv, not shown: small tags and cut ends)
scFv: B9 scFv with Q65N, T76A
notes: also called S009-F7.44.20 humanized antibody VH2 + VL1
B11: F7.44.20-H3 (scFv, not shown: small tags and cut ends)
scFv: EVQLVQSGAEVKKPGASVKVSCKASGYTFTDYNMDWVRQAPGQGLEWMGDINPSTGGTIYNQKFNGRVTMTEDKSTSTVYMELSSLRSEDTAVYYCARRRIGTGYFDVWGQGTTVTVSSGGGGSGGGGSGGGGSEIVLTQSPATLSLSPGERATLSCSASSSVISSYLSWYQQKPGQSPRLLIYRTSNLASGIPARFSGSGSGTDYTLTISSLEPEDFAVYYCHQWSSFPYTFGGGTKVEIK
notes: also called S009-F7.44.20 humanized antibody VH1 + VL3
B12: F7.44.20-H11 (scFv, not shown: small tags and cut ends)
scFv: B11 scFv with T76A
notes: also called S009-F7.44.20 humanized antibody VH2 + VL3
B13: F7.44.20-H12 (scFv, not shown: small tags and cut ends)
scFv: B11 scFv with T76A, Q177S
notes: also called S009-F7.44.20 humanized antibody VH2 + VL4
B14: F7.44.20-H16 (scFv, not shown: small tags and cut ends)
scFv: B11 scFv with N65S, T76A, Q177S
notes: also called S009-F7.44.20 humanized antibody VH2a + VL4
B15: F7.44.20-H4 (scFv, not shown: small tags and cut ends)
scFv: B11 scFv with Q177S
notes: also called S009-F7.44.20 humanized antibody VH1 + VL4
B16: F7.44.20-H15 (scFv, not shown: small tags and cut ends)
scFv: B11 scFv with N65S, T76A
notes: also called S009-F7.44.20 humanized antibody VH2a + VL3
B17: F7.44.20-H8 (scFv, not shown: small tags and cut ends)
scFv: B11 scFv with N65Q, Q177S
notes: also called S009-F7.44.20 humanized antibody VH1a + VL4
B18: F7.44.20-H7 (scFv, not shown: small tags and cut ends)
scFv: B11 scFv with N65Q
notes: also called S009-F7.44.20 humanized antibody VH1a + VL3

Numbering of substitutions follows the chain as printed. Numbers in names are those of the source.

T3 sequence (Q13421 495-614): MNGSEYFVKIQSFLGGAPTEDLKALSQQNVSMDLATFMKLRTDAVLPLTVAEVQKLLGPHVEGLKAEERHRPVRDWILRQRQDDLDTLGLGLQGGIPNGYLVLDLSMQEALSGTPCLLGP

One assay deals with T1, human MSLN on OVCAR3 tumor cells (human, UniProt Q13421 296-598).
T1 construct: whole, on cells; also called human MSLN protein
T1 sequence (Q13421 other isoform, or with tags, fused parts or gaps): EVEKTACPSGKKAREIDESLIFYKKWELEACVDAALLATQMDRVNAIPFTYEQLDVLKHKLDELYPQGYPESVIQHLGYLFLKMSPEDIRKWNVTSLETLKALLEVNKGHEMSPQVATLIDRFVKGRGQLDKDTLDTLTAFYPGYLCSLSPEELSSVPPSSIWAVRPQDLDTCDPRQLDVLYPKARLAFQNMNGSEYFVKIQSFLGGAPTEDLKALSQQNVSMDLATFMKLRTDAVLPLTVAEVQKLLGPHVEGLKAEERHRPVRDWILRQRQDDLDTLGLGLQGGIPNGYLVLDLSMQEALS
The assay is described as follows: FACS, OVCAR3 cells. A general note: Flow cytometry measures light scatter and fluorescence of single cells or particles in a stream.
A word on the EC50: it is the concentration at which the effect is half-maximal. B1 came in with an EC50 of 1.05 nM and a Maximum_MFI of 2180 MFI.
On the same counts, the results for B2 are 2 nM and 2190 MFI.
Turning to B3, the concentration for a half-maximal effect (EC50) was 3.04 nM and the Maximum_MFI stood at 2090 MFI.
On the same counts, the results for B4 are 3.04 nM and 2230 MFI.
Consider B5, for which the EC50 came to 2.06 nM and the Maximum_MFI is 2370 MFI.
On the same counts, the results for B6 are 2.6 nM and 2190 MFI.
With B7, the EC50 came to 1.08 nM and the Maximum_MFI came out at 2300 MFI.

Another assay concerns the target T2, monkey MSLN on HEK293T-monkey MSLN recombinant cells (monkey).
T2 construct: Full-length precursor as transfected; processing on the cell is not described; also called HEK293-monkey MSLN
T2 chain: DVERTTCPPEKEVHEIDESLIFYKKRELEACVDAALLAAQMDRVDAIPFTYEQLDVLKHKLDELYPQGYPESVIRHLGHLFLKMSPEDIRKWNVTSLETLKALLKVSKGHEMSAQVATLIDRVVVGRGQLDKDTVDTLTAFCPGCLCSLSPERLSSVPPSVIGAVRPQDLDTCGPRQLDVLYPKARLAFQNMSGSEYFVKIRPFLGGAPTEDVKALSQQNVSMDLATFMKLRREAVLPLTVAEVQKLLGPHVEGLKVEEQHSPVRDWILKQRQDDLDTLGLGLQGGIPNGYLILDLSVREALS
The assay is described as follows: FACS, HEK293T-monkey MSLN cells.
Regarding B1, the EC50 came out at 4.16 nM and the Maximum_MFI amounted to 9050 MFI.
On the same counts, the results for B2 are 5 nM and 8820 MFI.
Consider B3, for which the EC50 amounted to 3.94 nM and the Maximum_MFI was found to be 8620 MFI.
Take B4: the EC50 is 5.23 nM and the Maximum_MFI is 9380 MFI.
Regarding B5, the EC50 amounted to 5.33 nM and the Maximum_MFI amounted to 8310 MFI.
As to B6, the EC50 amounted to 4.08 nM and the Maximum_MFI amounted to 8080 MFI.
On the same counts, the results for B7 are 3.54 nM and 8440 MFI.

The next assay addresses T3, human MSLN-R3 on HEK293T-hMSLN-R3 recombinant cells (human, UniProt Q13421 487-606).
T3 construct: the C-terminal limit is uncertain; also called human MSLN-R3 membrane protein
The assay is described as follows: FACS, HEK293T-hMSLN-R3 cells.
In the case of B8, the Maximum_MFI was 461 MFI.
Turning to B9, the EC50 is 0.94 nM and the Maximum_MFI turned out to be 1700 MFI.
For B10, the EC50 came to 1.67 nM and the Maximum_MFI was found to be 1560 MFI.
Take B11: the EC50 was 1.57 nM and the Maximum_MFI came to 1490 MFI.
Turning to B12, the EC50 came out at 1.14 nM and the Maximum_MFI is 1680 MFI.
Regarding B13, the EC50 stood at 2.88 nM and the Maximum_MFI came to 1410 MFI.
As for B14, the EC50 stood at 2.23 nM and the Maximum_MFI came out at 1440 MFI.
As for B15, the EC50 worked out at 2.64 nM and the Maximum_MFI amounted to 1470 MFI.
For B16, the EC50 was 0.91 nM and the Maximum_MFI came out at 1500 MFI.
As for B17, the EC50 turned out to be 1.95 nM and the Maximum_MFI was 1650 MFI.
Take B18: the EC50 came out at 2.12 nM and the Maximum_MFI stood at 1510 MFI.

For another assay, the target named is T2, monkey MSLN on HEK293T-monkey MSLN …. The assay is described as follows: FACS, HEK293T-monkey MSLN cells. This is another data set of the same source.
For the molecule B9, the EC50 turned out to be 4.55 nM and the Maximum_MFI amounted to 7780 MFI.
For the molecule B10, the EC50 turned out to be 8.05 nM and the Maximum_MFI was 7460 MFI.
Turning to B11, the EC50 was determined as 7.34 nM and the Maximum_MFI stood at 7000 MFI.
On to B12, for which the 50% effective concentration (EC50) is 3.74 nM and the Maximum_MFI is 7210 MFI.
Consider B13, for which the EC50 was 10.3 nM and the Maximum_MFI stood at 6670 MFI.
On to B14, for which the EC50 is 12.2 nM and the Maximum_MFI was found to be 5980 MFI.
Regarding B15, the half-maximal effective concentration (EC50) worked out at 10.4 nM and the Maximum_MFI was 6450 MFI.
On the same counts, the results for B16 are 4.47 nM and 8090 MFI.
Turning to B17, the EC50 amounted to 7.09 nM and the Maximum_MFI was 6320 MFI.
As for B18, the concentration giving a half-maximal response (EC50) was 9.24 nM and the Maximum_MFI is 6130 MFI.

The target in a further assay is T3, human MSLN-R3 on HEK293T-hMSLN-R3 …. The assay is described as follows: FACS, HEK293T-hMSLN-R3 cells. This is another data set of the same source.
For the molecule B1, the EC50 amounted to 2.55 nM and the Maximum_MFI came out at 2190 MFI.
The corresponding values for B2 are 1.61 nM and 1650 MFI.
Turning to B3, the EC50 came out at 1.1 nM and the Maximum_MFI stood at 1560 MFI.
As to B4, the EC50 amounted to 2.15 nM and the Maximum_MFI worked out at 1960 MFI.
On to B8, for which the Maximum_MFI worked out at 461 MFI.
On to B5, for which the 50% effective concentration (EC50) is 2.89 nM and the Maximum_MFI was found to be 1970 MFI.
As to B6, the EC50 amounted to 1.29 nM and the Maximum_MFI is 1470 MFI.
For the molecule B7, the EC50 was determined as 1.01 nM and the Maximum_MFI turned out to be 1540 MFI.

In the next assay the target is T4, human MSLN-hFc recombinant protein (human, UniProt Q13421 296-580).
T4 construct: Captured by an anti-human IgG antibody on the chip; also called human MSLN protein; Acro MSN-H5253
T4 sequence (Q13421 other isoform, or with tags, fused parts or gaps): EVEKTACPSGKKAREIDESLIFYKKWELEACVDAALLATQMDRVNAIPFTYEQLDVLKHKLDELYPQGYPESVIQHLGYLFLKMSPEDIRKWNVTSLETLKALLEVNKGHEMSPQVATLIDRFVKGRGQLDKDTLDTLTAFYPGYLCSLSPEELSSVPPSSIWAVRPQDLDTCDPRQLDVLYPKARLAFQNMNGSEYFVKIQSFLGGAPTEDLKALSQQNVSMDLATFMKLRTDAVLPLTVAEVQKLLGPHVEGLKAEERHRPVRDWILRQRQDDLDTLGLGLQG
The assay is described as follows: SPR (Biacore 8K), MSLN-hFc captured, antibody injected. A general note: Surface plasmon resonance follows binding to a sensor surface in real time, without labels.
A word on the Kd: it is the concentration at which binding is half-saturated. In general, koff refers to the first-order rate constant of dissociation. As a reminder, the kon is the rate constant with which the complex forms. Turning to B9, the Kd came out at 0.709 nM, the koff amounted to 0.000313 s⁻¹ and the kon worked out at 442000 M⁻¹ s⁻¹.
The corresponding values for B10 are 0.464 nM, 0.000208 s⁻¹ and 449000 M⁻¹ s⁻¹.
Consider B14, for which the Kd was determined as 1.85 nM, the koff came to 0.000679 s⁻¹ and the kon was 367000 M⁻¹ s⁻¹.

A further assay concerns the target T1, human MSLN on OVCAR3 tumor cells. The assay is described as follows: FACS, OVCAR3 cells. This is another data set of the same source.
The molecule B9 displayed a concentration giving a half-maximal response (EC50) of 1 nM and a Maximum_MFI of 1960 MFI.
In the case of B10, the 50% effective concentration (EC50) amounted to 1.61 nM and the Maximum_MFI came out at 2220 MFI.
B11 had an EC50 of 0.69 nM and a Maximum_MFI of 1810 MFI.
As to B12, the EC50 amounted to 0.61 nM and the Maximum_MFI was found to be 1950 MFI.
B13 displayed an EC50 of 1.5 nM and a Maximum_MFI of 2100 MFI.
The molecule B14 returned a 50% effective concentration (EC50) of 1.66 nM and a Maximum_MFI of 1650 MFI.
Regarding B15, the EC50 was 1.26 nM and the Maximum_MFI amounted to 1680 MFI.
Consider B16, for which it took 1.77 nM to reach a half-maximal effect (EC50) and the Maximum_MFI was found to be 1930 MFI.
Consider B17, for which the EC50 was 1.04 nM and the Maximum_MFI came to 1880 MFI.
For the molecule B18, the EC50 was determined as 1.11 nM and the Maximum_MFI was found to be 1840 MFI.

The values above are taken from patent US20250250357A1 (NANJING ZAIMING PHARMACEUTICAL, published 2025).
